Here are results for three substances from patent publication US20050209548A1, “Electroporation-mediated intravascular delivery” (priority 2004, published 2005).

For data set [1] the following is noted: Molecular Probe, Inc.; cited from earlier work.
The conditions of data set [2]: rabbit, in vivo.
Method: This catheter was used in the following experiment. Three rabbits weighing 4 Kg were anesthetized with xylazine (0.1 ml/kg) and ketamine (0.5 ml/1 g i.m.). General anesthesia was maintained with α-chloralose (30 mg/Kg. i.v.). […] A femoral artery in the leg on one side of the rabbit was exposed. A 5F sheath was introduced and the catheter was pushed under fluoroscopic guidance to the right or left carotid artery. […] Radiocontrast fluid was infused (panel b) allowing confirmation of the catheter position, the patient artery, the balloon and the built-in radiopaque marker, as well as presence of the dye in the side branches. After balloon inflation, (panel c) 1 ml of fluoresceinated heparin (concentration 1 mg dissolved in 2 ml: biological activity of heparin as per manufacturer: 167 U) was infused between the occluded segment via the drug port and the artery pulsed immediately with the balloons in the inflated condition. Initially, field parameters tested were ˜60V and four pulses each of ˜600 μs pulse length. […] In a subsequent experiment, voltage and pulse length were changed to 57V and 22 ms, respectively. As before, four pulses were delivered from ECM 600 pulse exponential generator. […] In addition, fluorescence due to collagen and elastin was also present.
For data set [3] the following is noted: rabbit, in vivo. This is another data set of the same source.
Method: Experiments were performed in 12 New Zealand white rabbits of either sex (2.5-3.4 kg) preanesthetized with xylazine (2 mg.kg^−1) and ketamine (50 mg.kg^−1) intramuscularly and an injection of alphachloralose (30 mg.kg^−1) intraveneously through an ear vein. A supplemental dose of 10 mg.kg^−1 chloralose was given every hour. The anesthetic state was maintained such that the toe-pinching reflex and corneal reflexes were absent.
Animals were placed supine and strapped on the surgical table. The trachea was intubated to allow spontaneous breathing of ambient air. Electrocardiogram (EKG) of the animal was obtained by using Lead II in differential mode. End-tidal CO2 tension was monitored by a CO2 analyzer (Datex, Puritan-Bennett). Body temperature was kept at the 38-38.5 °C range by radiant heating.
A longitudinal incision in the cervical region was made in the rabbit to expose the common carotid arteries on both sides. Approximately 6 cm in length of carotid artery on each side was isolated from the surrounding tissue and vagosympathetic nerve trunk. The caudal end of the carotid artery on one side was transiently occluded with a vascular clip at the junction between the neck and chest. A small incision was then made at the rostral end of the artery (just below transversus vein) to push an electroporator catheter (FIG. 1) through this incision. […]
Lead II EKG Nvas differentially amplified and the output was continuously monitored on an osciloscope (Tektronix) and recorded on a Gould TA-2000 thermal-array recorder for evaluation. […]
Arterial segments were subsequently freeze sectioned (10 micron) transversely. Microscopic slides containing arterial sections were observed under a Zeiss confocal laser (argon-krypton) scan microscope (LSM 410 Invert), (excitation at 495 nm and emission at 515 nm) to obtain video image (magnification 40 times) of fluorescence. Subsequently, control and test samples were compared by analyzing fluorescence intensity by Line Intensity Scan at different depths of the arterial wall using commercially obtained software (Image 1: Universal Imaging Corp.). […]
For data set [4] the following is noted: pig, in vivo; cited from earlier work.

Consider fluoresceinated heparin [F-heparin], for which the activity in data set [1] was 167 unit/mg. Also, in data set [2], the “penetration and uptake after autofluorescence correction and subtraction of control artery fluorescence” value was “deep penetration and uptake”.
Regarding heparin, in data set [3], the “duration of sustained delivery in vessel” value is listed as “at least 12 hours”, the “location in the vessel wall” value was “mostly present in the media but also in the intima” and the “washout of local delivery from vessel” value is listed as “completely washes out in two hours”.
hirudin: in data set [4], the “drug washed out of the vessel” value is 80% and the “level in vessel compared with passive delivery” value is listed as “the level is the same as for the passive delivery”.
